Residue numbers refer to the chain shown, from its start. In names and notes the source's numbering stands.
B1: F010302316 (VHH)
VHH: EVQLVESGGGVVQPGGSLRLSCAASGPVFNINRMAWYRQAPGKQRELVAYVTPTGDISYADSVKGRFTISRDASKRVYLQMNSLRPEDTALYYCRALLQPRSYSITRTYWGQGTLVTVSS
notes: also called F0103387G04(L11V, A12V, K33R, R39Q, S50Y, S56D, T60A, G73A, W78V, S79Y, T83R, V89L, N93R, D99R, N100cI)-FLAG3-HIS6
B2: F010302319 (VHH)
VHH: B1 VHH with R101D, S102R
notes: also called F0103387G04(L11V, A12V, K33R, R39Q, S50Y, S56D, T60A, G73A, W78V, S79Y, T83R, V89L, N93R, S100R, N100cI)-FLAG3-HIS6
B3: F010302321 (VHH)
VHH: B1 VHH with A73R, R101D, S102R
notes: also called F0103387G04(L11V, A12V, K33R, R39Q, S50Y, S56D, T60A, G73R, W78V, S79Y, T83R, V89L, N93R, S100R, N100cI)-FLAG3-HIS6
B4: F010302318 (VHH)
VHH: B1 VHH with A73G, R101D, S102R
notes: also called F0103387G04(L11V, A12V, K33R, R39Q, S50Y, S56D, T60A, W78V, S79Y, T83R, V89L, N93R, S100R, N100cI)
B5: F010302324 (VHH)
VHH: B1 VHH with A73R, S102R
notes: also called F0103387G04(L11V, A12V, K33R, R39Q, S50Y, S56D, T60A, G73R, W78V, S79Y, T83R, V89L, N93R, D99R, S100R, N100cI)
B6: F010302334 (VHH)
VHH: EVQLVESGGGVVQPGGSLRLSCAASSRQFIRDVFTGWYRRAPGKQRELVARIYNEGNTQYADSAKGRFTISRDNAKKTVYLQMNSLRPEDTALYYCLFSGTISTGREYRSGDYWGQGTLVTVSS
B7: F010302336 (VHH)
VHH: B6 VHH with S26H
B8: F010302335 (VHH)
VHH: B6 VHH with N54E, E55S
B9: F010302342 (VHH)
VHH: B6 VHH with R40Q
B10: F010302340 (VHH)
VHH: B6 VHH with S26H, Q28A, V33L, N54E, E55S, Q59N
B11: F010302343 (VHH)
VHH: B6 VHH with R40Q, N54E, E55S
B12: F010302338 (VHH)
VHH: B6 VHH with S26H, Q28A, N54E, E55S
B13: F010302345 (VHH)
VHH: B6 VHH with S26H, R40Q, N54E, E55G
B14: F010302346 (VHH)
VHH: B6 VHH with S26H, Q28A, R40Q, N54E, E55S
B15: F010302344 (VHH)
VHH: B6 VHH with S26H, R40Q
B16: F010302364 (VHH)
VHH: B6 VHH with S26H, Q28A, V33L, R40Q, N54E, E55S, Q59N, A64V
B17: F010302355 (VHH)
VHH: B6 VHH with S26H, Q28A, N54E, E55G, A64V
B18: F010302352 (VHH)
VHH: B6 VHH with S26H, A64V
B19: F010302365 (VHH)
VHH: B6 VHH with Q28A, E55G, Q59N
B20: F010302363 (VHH)
VHH: B6 VHH with S26H, Q28A, R40Q, N54E, E55G, A64V
B21: F010302360 (VHH)
VHH: B6 VHH with S26H, R40Q, A64V
B22: F010302362 (VHH)
VHH: B6 VHH with S26H, Q28A, R40Q, N54E, E55S, A64V
B23: F010302357 (VHH)
VHH: B6 VHH with R40Q, Q59N, A64V
B24: F010302368 (VHH)
VHH: B6 VHH with Q28A, R40Q, E55G, Q59N, A64V
B25: F010302359 (VHH)
VHH: B6 VHH with R40Q, N54E, E55S, A64V
B26: F010302353 (VHH)
VHH: B6 VHH with S26H, N54E, E55G, A64V
B27: F010302358 (VHH)
VHH: B6 VHH with R40Q, A64V
B28: F010302361 (VHH)
VHH: B6 VHH with S26H, R40Q, N54E, E55G, A64V
B29: F010302354 (VHH)
VHH: B6 VHH with S26H, Q28A, N54E, E55S, A64V
B30: F010302366 (VHH)
VHH: B6 VHH with Q28A, R40Q, E55G, Q59N
B31: F010302356 (VHH)
VHH: B6 VHH with S26H, Q28A, V33L, N54E, E55S, Q59N, A64V

Experiments:
[1] = biological target: T1, huNav1.7α + β1-β2-β3 (human Nav1.7α co-expressed with human Navβ1, Navβ2 and Navβ3 on cells) (human); assay: binding FACS, CHO FlpIn cells
T1 construct: also called huNav1.7-beta1-beta2-beta3; CHO FlpIn huNav1.7α + β1-β2-β3
Method: (§1) Binding of the ISVDs to cell-expressed Nav1.7α was detected via murine anti-Flag (Sigma, catalog #F1804). Briefly, cells were resuspended in FACS buffer (PBS, 10% FBS, NaN₃) and transferred to a 96-well V-bottom plate at 1×10^5 cells/well. Purified FLAG3-tagged ISVD was diluted in FACS buffer and added to the cells for 30 minutes at 4° C. […] Prior to the read-out, the samples were resuspended in 1 μg/mL propidium iodide (Sigma, catalog #P4170) to exclude dead cells. Between each step, the cells were centrifuged for 5 minutes at 200 grams and washed with 100 μL/well FACS buffer.

huNav1.7α + β1-β2-β3 [2] = biological target: T2, huNav1.7α + β1-β2-β3 (human, UniProt Q15858 1-1988; A5A6L6 19-218; O60939 30-215; Q2KI11 23-215); assay: binding FACS, CHO FlpIn
T2 construct: also called huNav1.7-beta1-beta2-beta3; huNav1.7-β1-β2-β3
Method: as §1

rhNav1.7α + β1-β2-β3 [3] = biological target: T3, rhNav1.7α + β1-β2-β3 (rhesus monkey); assay: binding FACS, CHO FlpIn
T3 construct: also called rhNav1.7-beta1-beta2-beta3; rhNav1.7-β1-β2-β3
Method: as §1

huNav1.7α + β1-β2-β3 [4] = biological target: T4, huNav1.7α + β1-β2-β3 (human, UniProt Q15858 1-1988; A5A6L6 19-218; O60939 30-215; Q2KI11 23-215); assay: binding FACS, CHO FlpIn cells
T4 construct: Cell line (CHO FlpIn, HEK FlpIn, transient HEK293T) is named under assay; also called huNav1.7-beta1-beta2-beta3; human Nav1.7α with Navβ1, Navβ2 and Navβ3
Method: as §1

rhNav1.7α + β1-β2-β3 [5] = biological target: T5, rhNav1.7α + β1-β2-β3 (rhesus monkey); assay: binding FACS, CHO FlpIn cells
T5 construct: also called rhNav1.7-beta1-beta2-beta3; rhesus Nav1.7α
Method: as §1

Row | Binder | Bmax (huNav1.7α + β1-β2-β3 [2]) | EC50 (huNav1.7α + β1-β2-β3 [2]) | Bmax (rhNav1.7α + β1-β2-β3 [3]) | EC50 (rhNav1.7α + β1-β2-β3 [3]) | Bmax (huNav1.7α + β1-β2-β3 [4]) | EC50 (huNav1.7α + β1-β2-β3 [4]) | Bmax (rhNav1.7α + β1-β2-β3 [5]) | EC50 (rhNav1.7α + β1-β2-β3 [5]) | further results
1 | B1 | – | – | – | – | – | – | – | – | Bmax [1]: 91%; EC50 [1]: 8.2 nM
2 | B2 | – | – | – | – | – | – | – | – | Bmax [1]: 88%; EC50 [1]: 15 nM
3 | B3 | – | – | – | – | – | – | – | – | Bmax [1]: 91%; EC50 [1]: 7.9 nM
4 | B4 | – | – | – | – | – | – | – | – | Bmax [1]: 89%; EC50 [1]: 11 nM
5 | B5 | – | – | – | – | – | – | – | – | Bmax [1]: 42%; EC50 [1]: 29 nM
6 | B6 | 100% | 4 nM | 70% | 11 nM | – | – | – | – | –
7 | B7 | 100% | 3.6 nM | 79% | 9.7 nM | – | – | – | – | –
8 | B8 | 100% | 4.1 nM | 84% | 13 nM | – | – | – | – | –
9 | B9 | 100% | 4 nM | 61% | 16 nM | – | – | – | – | –
10 | B10 | 100% | 4.6 nM | 96% | 13 nM | – | – | – | – | –
11 | B11 | 100% | 6.4 nM | 84% | 18 nM | – | – | – | – | –
12 | B12 | 100% | 3.4 nM | 100% | 7.9 nM | – | – | – | – | –
13 | B13 | 100% | 4.9 nM | 96% | 12 nM | – | – | – | – | –
14 | B14 | 100% | 5 nM | 99% | 12 nM | – | – | – | – | –
15 | B15 | 100% | 4.3 nM | 78% | 13 nM | – | – | – | – | –
16 | B16 | – | – | – | – | 100% | 7.2 nM | 74% | 17 nM | –

Row | Binder | Bmax (huNav1.7α + β1-β2-β3 [2]) | EC50 (huNav1.7α + β1-β2-β3 [2]) | Bmax (rhNav1.7α + β1-β2-β3 [3]) | EC50 (rhNav1.7α + β1-β2-β3 [3]) | Bmax (huNav1.7α + β1-β2-β3 [4]) | EC50 (huNav1.7α + β1-β2-β3 [4]) | Bmax (rhNav1.7α + β1-β2-β3 [5]) | EC50 (rhNav1.7α + β1-β2-β3 [5]) | further results
17 | B17 | – | – | – | – | 100% | 3.5 nM | 97% | 6.8 nM | –
18 | B18 | – | – | – | – | 100% | 3.6 nM | 60% | 11 nM | –
19 | B19 | – | – | – | – | 100% | 3.1 nM | – | – | binding result (rhNav1.7α + β1-β2-β3 [5]): no binding
20 | B20 | – | – | – | – | 100% | 4.2 nM | 96% | 9.3 nM | –
21 | B21 | – | – | – | – | 100% | 3.5 nM | 58% | 15 nM | –
22 | B22 | – | – | – | – | 100% | 5.4 nM | 89% | 14 nM | –
23 | B23 | – | – | – | – | 100% | 5.3 nM | – | – | binding result (rhNav1.7α + β1-β2-β3 [5]): no binding
24 | B24 | – | – | – | – | 100% | 3.9 nM | – | – | binding result (rhNav1.7α + β1-β2-β3 [5]): no binding
25 | B25 | – | – | – | – | 100% | 6.4 nM | 66% | 24 nM | –
26 | B26 | – | – | – | – | 100% | 4.2 nM | 93% | 7.9 nM | –
27 | B27 | – | – | – | – | 100% | 4.5 nM | 37% | 37 nM | –
28 | B28 | – | – | – | – | 100% | 4.8 nM | 92% | 11 nM | –
29 | B29 | – | – | – | – | 100% | 4.2 nM | 96% | 7.9 nM | –
30 | B30 | – | – | – | – | 100% | 3.7 nM | – | – | binding result (rhNav1.7α + β1-β2-β3 [5]): no binding
31 | B31 | – | – | – | – | 100% | 5.3 nM | 81% | 12 nM | –

From US20240002497A1 (Merck Sharp & Dohme, published 2024)
